# Laboratory results taken from patent US20250250357A1 (NANJING ZAIMING PHARMACEUTICAL, published 2025).
# T1: monkey MSLN full-length protein (NCBI: XP_028696439.1) expressed on HEK293T-monkey MSLN cells (monkey)
# T1 construct: Whole encoded precursor
# T1 chain: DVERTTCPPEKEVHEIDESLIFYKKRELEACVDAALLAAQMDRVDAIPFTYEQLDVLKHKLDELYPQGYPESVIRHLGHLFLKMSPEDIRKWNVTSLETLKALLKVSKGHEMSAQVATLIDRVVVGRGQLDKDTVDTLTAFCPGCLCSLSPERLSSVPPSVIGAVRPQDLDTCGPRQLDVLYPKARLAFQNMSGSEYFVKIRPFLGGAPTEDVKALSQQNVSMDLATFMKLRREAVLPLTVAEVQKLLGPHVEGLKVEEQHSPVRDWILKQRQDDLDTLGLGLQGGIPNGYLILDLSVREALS
# B1: Tab106 (YP218, hIgG1) (antibody, V domains shown)
# VH: QQQLEESGGGLVKPEGSLTLTCKASGFDLGFYFYACWVRQAPGKGLEWIACIYTAGSGSTYYASWAKGRFTISKASSTTVTLQMTSLAAADTATYFCARSTANTRSTYYLNLWGPGTLVTVSS
# VL: DVVMTQTPASVSEPVGGTVTIKCQASQRISSYLSWYQQKPGQRPKLLIFGASTLASGVPSRFKGSGSGTEYTLTISDLECADAATYYCQSYAYFDSNNWHAFGGGTEVVVRT
# notes: control antibody; YP218 VH and VL in human IgG1 CH and CL vectors; also called YP218 human IgG1 antibody
# B2: S009-F7.2.3 (antibody, human IgG1, kappa, V domains shown)
# VH: ELQLVESGGDLVKPGGSLKLSCAASGFTFSSNGMSWLRQTPDKRLEWVATISSGGRYTYYPDSVKGRFTISRDNAKNTLYLQMSSLKSEDTAMYYCARRGIYDYFDCWGQGTTLTVSS
# VL: DIQMTQSPASLSISVGETVTITCRASENIHSSLAWYQQKQGKSPQLLVYAATNLADGVPSRFSGSGSGSQYSLKINSLQSEDFGTYYCQHFWGTPWTFGGGTKLDIKR
# notes: human-murine chimeric antibody, human IgG1/kappa constant regions
# B3: S009-F7.11.11 (antibody, human IgG1, kappa, V domains shown)
# VH: EVQLQQSGPELVKPGASVKIPCKASGYTITDYNMDWVKQSRGKSLEWIGDVFPYNGDSIYNQKFEGRATLTVDKYSSTAYMELRGLTSEDTAVYFCARRKTGTGYFDVWGTGTTVTVSS
# VL: QLVLTQSPAIMSASPGEKVTLTCSASSSVSSTYLSWYLQKPGSSPKLWIYSTSNLASGVPARFSGSGSGTSYSLTISSMEAEDAASYFCHQWSSYPYTFGGGTKLEIKR
# notes: as for B2
# B4: S009-F7.6.17 (antibody, human IgG1, kappa, V domains shown)
# VH: QVQLQQSGAELARPGASVKMSCKASGYTFTTYTMHWVKQRPGQGLEWIGYISPTGDFTKYNQKFKDKATLTTDKSSNTAFMQLSSLTSEDSAVYYCARWNGTVWFAYWGQGTLVTVSA
# VL: DIVMTQSQKFMSTSVGDRVTVTCKASQALGTNVAWYQQKPGQSPKVLIYSASYRYSGVPYRFAGGGSGTDFTLTITNVQSEDLAEYFCQQYNNYPLTFGAGTKLELKR
# notes: as for B2
# B5: S009-F1.25.10 (antibody, human IgG1, kappa, V domains shown)
# VH: EVQLQQSGPELVKPGASLKISCKASGYSFTDYTMNWVKQSHGKNLEWIGLFNPYNGGISYNQKFKGKATLTVDKSSNTAYMELLSLTSDDSAVYFCARDGRGGFYAMDYWGQGTSVTVSS
# VL: DIQMTQTTSSLSASLGDRVTISCRASQDISIYLNWYQQKPDGPVKLLIYYTSRLHSGVPSRFSGSGSGTDFSLTISNLEQEDIATYFCQQGYTLPPWTFGGGTKLEIKR
# notes: Human-murine chimeric antibody, human IgG1/kappa constant regions
# B6: S009-F1.35.24 (antibody, human IgG1, kappa, V domains shown)
# VH: EVQLQQSEPELVKPGASVRISCKASGYSFTDYYMHWVKQSPENRLEWIGEINPSTGGTSYNPKFKDKATLTVDKSSSTAYMQLKSLTSEESAVYYCTRYHYYGSSSYVMDYWGQGTSVTVSS
# VL: QIVLTQSPAILSASPGERVTMTCSASSSVYHMHWFQQKSGTSPKRWVYDTSKLASGVPARFSGSGSGTSYSLTISSMEAEDAATYYCQHWRTNPLTFGAGTKLELKR
# notes: as for B5
# B7: S009-F1.7.14 (antibody, human IgG1, kappa)
# heavy: not shown
# light: QIVLTQSPAIMSASPGEKVTISCSASSSVSYMYWYQQKPGSSPKPWISRTSNLASGVPARFSGSGSGTSYSLTISSMEAEDAATYYCQQYHSYPPTLGAGTKLELKRTVAAPSVFIFPPSDEQLKSGTASVVCLLNNFYPREAKVQWKVDNALQSGNSQESVTEQDSKDSTYSLSSTLTLSKADYEKHKVYACEVTHQGLSSPVTKSFNRGEC
# notes: as for B5
# B8: S009-F1.2.12 (antibody, human IgG1, kappa, V domains shown)
# VH: QVQLKQTGPGLVQPSQSLSITCTVSGFSLTNYAVHWVRQSPGKGLEWLGVIWSGGATDYNTVFISRLSISKDNSKSQVFFKVNSLQVDDTAIYYCARTGSGYAMDYWGQGTSVTVSS
# VL: DIVLTQSPATLSVTPGDRVSLSCRTSHNVNTYLHWYQQKSHESPRLLIKYASQSISEIPSRFSGSGSGTNFTLSINSVETEDFGMYFCHQTNRWPLTFGAGTKLELKR
# Target: T2, human MSLN-R3 protein expressed on HEK293T cells (HEK293T-hMSLN-R3) (human, UniProt Q13421 487-606)
# T2 construct: C-terminal limit uncertain
# T2 sequence (Q13421 495-614): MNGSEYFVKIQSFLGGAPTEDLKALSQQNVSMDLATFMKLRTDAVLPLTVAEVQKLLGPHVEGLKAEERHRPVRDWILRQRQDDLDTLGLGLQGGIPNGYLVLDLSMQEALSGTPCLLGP
# Test: FACS on HEK293T-hMSLN-R3 cells;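 on result: flow cytometry binding of test chimeric antibodies to cells after 2 h incubation on ice, with values derived from the mean fluorescence intensity of the cells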
Binder,EC50,Maximum mean fluorescence intensity
B1,1000 pM,24500

# Target: T3, human MSLN-R3 protein (Met487-Ser606 of NCBI AAH09272.1) expressed on HEK293T-hMSLN-R3 cells (human, UniProt Q13421 487-606)
# T3 construct: also called Region3
# T3 sequence (Q13421 495-614): as above
# Test: FACS on HEK293T-hMSLN-R3 cells;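 on result: flow cytometry binding of test chimeric antibodies to cells after 2 h incubation on ice, with values derived from the mean fluorescence intensity of the cells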
# Protocol: (§1) The desired cells were expanded to the logarithmic growth phase in a T-75 cell culture flask. […] After the cells from the previous step were subjected to cell counting, the cell pellet was resuspended to 2×10⁶ cells/mL in a blocking buffer of [PBS+2% (w/w) BSA] and added into a 96-well FACS reaction plate at 50 μL/well. A chimeric antibody (a sample to be tested) was added at 50 μL/well, and the plate was incubated on ice for 2 h. […] After the plate was centrifuged and washed 5 times with a PBST buffer, assay and analysis were performed by FACS (FACS CantoII, purchased from BD). Data analysis was performed by software (Flowjo) to obtain the mean fluorescence intensity (MFI) of the cells.
Binder,Maximum mean fluorescence intensity,binding result,EC50
B2,33,no binding,–
B3,6260,–,280 pM
B4,6420,–,310 pM

# Target: T4, human MSLN-R3-3 polypeptide (human)
# T4 construct: also called human MSLN-R3-3 protein; hMSLN-R3-3
# Test: ELISA, coated MSLN-R3-3;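 further: chimeric antibodies in serial dilution bound to plate-coated antigen for 2 h at 37 °C, with a negative control antibody alongside, and TMB colour development stopped with HCl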
# Protocol: The plate was sealed with a plastic film and incubated at 4° C. overnight. The next day, the plate was washed twice with PBST, and a blocking buffer [PBS+2% (w/w) BSA] was added for blocking at room temperature for 2 h. The blocking buffer was discarded, and a chimeric antibody or negative control antibody serially diluted from 100 nM was added at 50 μL/well. After incubation at 37° C. for 2 h, the plate was washed 3 times with PBST. […] After incubation at 37° C. for 2 h, the plate was washed 5 times with PBST. A TMB substrate was added at 50 μL/well for incubation at room temperature for 5-10 min, and then a stop solution (1.0 N HCl) was added at 50 μL/well.
Binder,OD450 at 0.0001 nM,OD450 at 0.001 nM,OD450 at 0.01 nM,OD450 at 0.1 nM,OD450 at 1 nM,OD450 at 10 nM,OD450 at 100 nM,OD450 at none (no antibody)
B5,0.07 OD450,0.13 OD450,0.59 OD450,1.82 OD450,2.17 OD450,2.41 OD450,2.78 OD450,0.07 OD450
B6,0.07 OD450,0.07 OD450,0.07 OD450,0.08 OD450,0.07 OD450,0.07 OD450,0.15 OD450,0.07 OD450
B7,0.07 OD450,0.07 OD450,0.07 OD450,0.07 OD450,0.07 OD450,0.13 OD450,0.72 OD450,0.07 OD450
B8,0.06 OD450,0.08 OD450,0.06 OD450,0.07 OD450,0.07 OD450,0.08 OD450,0.16 OD450,0.08 OD450

# Target: T5, human MSLN-R2-his protein (human, UniProt Q13421 391-486)
# T5 construct: Region 2 of human MSLN, His-tagged; also called human MSLN-R2 protein; hMSLN-R2-his; not shown: His tag
# T5 sequence (Q13421 other isoform, or with tags, fused parts or gaps): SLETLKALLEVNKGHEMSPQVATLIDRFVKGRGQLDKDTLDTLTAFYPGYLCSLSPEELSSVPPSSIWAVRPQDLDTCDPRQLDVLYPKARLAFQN
# Test: ELISA, coated MSLN-R2;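 further: chimeric antibodies bound to blocked coated plates for 2 h at 37 °C, TMB colour development stopped with HCl, with a negative control antibody for comparison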
Binder,OD450 at 0.0001 nM,OD450 at 0.001 nM,OD450 at 0.01 nM,OD450 at 0.1 nM,OD450 at 1 nM,OD450 at 10 nM,OD450 at 100 nM,OD450 at none (no antibody)
B5,0.04 OD450,0.04 OD450,0.04 OD450,0.04 OD450,0.04 OD450,0.05 OD450,0.05 OD450,0.05 OD450
B6,0.04 OD450,0.05 OD450,0.05 OD450,0.04 OD450,0.05 OD450,0.05 OD450,0.06 OD450,0.05 OD450
B7,0.04 OD450,0.04 OD450,0.05 OD450,0.04 OD450,0.05 OD450,0.05 OD450,0.11 OD450,0.05 OD450
B8,0.05 OD450,0.05 OD450,0.05 OD450,0.06 OD450,0.1 OD450,0.3 OD450,1.44 OD450,0.05 OD450

# Target: T6, human MSLN-R3-his protein (human, UniProt Q13421 487-598)
# T6 construct: Region 3 of human MSLN, His-tagged; also called human MSLN-R3 protein; hMSLN-R3-his; not shown: His tag
# T6 sequence (Q13421 495-606): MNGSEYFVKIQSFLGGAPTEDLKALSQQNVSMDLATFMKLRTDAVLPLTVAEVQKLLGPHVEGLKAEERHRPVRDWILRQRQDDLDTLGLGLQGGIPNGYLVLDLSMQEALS
# Test: ELISA, coated MSLN-R3
Binder,OD450 at 0.0001 nM,OD450 at 0.001 nM,OD450 at 0.01 nM,OD450 at 0.1 nM,OD450 at 1 nM,OD450 at 10 nM,OD450 at 100 nM,OD450 at none (no antibody)
B5,0.05 OD450,0.05 OD450,0.09 OD450,0.34 OD450,1.44 OD450,2.07 OD450,2.81 OD450,0.05 OD450
B6,0.05 OD450,0.05 OD450,0.05 OD450,0.05 OD450,0.05 OD450,0.05 OD450,0.06 OD450,0.05 OD450
B7,0.05 OD450,0.05 OD450,0.04 OD450,0.05 OD450,0.05 OD450,0.07 OD450,0.1 OD450,0.05 OD450
B8,0.05 OD450,0.06 OD450,0.05 OD450,0.05 OD450,0.05 OD450,0.06 OD450,0.06 OD450,0.06 OD450

# Target: T1, monkey MSLN full-length protein (NCBI: …)
# Test: FACS on HEK293T-monkey MSLN cells;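 further: flow cytometry binding of chimeric antibodies to the cells, with a 2 h incubation on ice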
# Protocol: as §1
Binder,EC50,Maximum mean fluorescence intensity
B3,410 pM,49500
B4,700 pM,56100

# Target: T7, human MSLN protein endogenously expressed on OVCAR3 tumor cells (human, UniProt Q13421 296-598)
# T7 construct: whole, on cells; Endogenous target on OVCAR3 cells; kept apart from the recombinant full-length construct; also called mesothelin
# T7 sequence (Q13421 other isoform, or with tags, fused parts or gaps): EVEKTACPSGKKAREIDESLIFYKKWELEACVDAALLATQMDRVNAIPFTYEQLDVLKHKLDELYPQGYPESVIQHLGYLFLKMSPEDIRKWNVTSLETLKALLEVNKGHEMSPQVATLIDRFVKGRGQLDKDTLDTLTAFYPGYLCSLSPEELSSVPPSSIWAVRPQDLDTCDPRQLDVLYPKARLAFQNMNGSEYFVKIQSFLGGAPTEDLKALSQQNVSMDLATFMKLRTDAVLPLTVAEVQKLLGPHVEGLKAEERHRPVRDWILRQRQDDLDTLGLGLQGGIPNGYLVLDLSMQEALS
# Test: FACS on OVCAR3 cells;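 further: flow cytometry binding of test antibodies to cells, 2 h incubation on ice, readout as cell mean fluorescence intensity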
# Protocol: as §1
Binder,EC50,Maximum mean fluorescence intensity
B2,1740 pM,22800
B3,860 pM,31800
B4,990 pM,31800
